Blank lines part the entries; values can stand above or below the molecule they belong to.
Tests used:
[1] = target: T1, Uhgb_MP (uncultured organism, UniProt D9ZDQ9); test: X-ray crystal structure, co-crystallization; type: binding; parameters: homohexamer, 240 kDa by SEC-MALLS; conditions: +1 subsite; with phosphate, glycerol in -1 subsite; co-crystallized with 5 mM N-acetylglucosamine, pH 7.0; 4C1 chair; 1.60 A; also with mannose in 4udk (1.76 A)
[2] = target: T1, Uhgb_MP; conditions: catalytic site; phosphate from 20 mM potassium phosphate buffer pH 7.0; glycerol in -1 subsite; 1.80 A; also in 4udj, 4udg, 4udk
[3] = target: Uhgb_MP, β-1,4-mannopyranosyl-chitobiose phosphorylase (GH130_2 mannoside phosphorylase) (uncultivated Bacteroides bacterium (human gut)); test: SEC-MALS; 30 µl of gel-filtered Uhgb_MP at 6 mg/ml on Superdex 200 HR 10/300 in 20 mM potassium phosphate pH 7.0, 150 mM NaCl, 0.4 ml/min, 15°C
[4] = target: Uhgb_MP, β-1,4-mannopyranosyl-chitobiose phosphorylase (GH130_2 mannoside phosphorylase) (uncultivated Bacteroides bacterium (human gut)); test: crystal structure; sitting-drop vapour diffusion at 12°C; protein 9-12 mg/ml in 20 mM potassium phosphate pH 7.0, 150 mM NaCl, with or without 5 mM mannose and/or 5 mM N-acetylglucosamine; PEG 3350, ammonium chloride; space group P212121, six molecules per asymmetric unit
[5] = target: Uhgb_MP, β-1,4-mannopyranosyl-chitobiose phosphorylase (GH130_2 mannoside phosphorylase) (uncultivated Bacteroides bacterium (human gut)); test: SAXS (SEC-SAXS); Bio SEC3 300 column on line with SAXS, 10°C; phosphate buffer or Tris-glycerol buffer (aggregation seen in both); hexamer read from data in Tris-glycerol buffer with 1 mM TCEP; ab initio envelope and rigid-body modelling

T1 sequence (D9ZDQ9 entry or part of it): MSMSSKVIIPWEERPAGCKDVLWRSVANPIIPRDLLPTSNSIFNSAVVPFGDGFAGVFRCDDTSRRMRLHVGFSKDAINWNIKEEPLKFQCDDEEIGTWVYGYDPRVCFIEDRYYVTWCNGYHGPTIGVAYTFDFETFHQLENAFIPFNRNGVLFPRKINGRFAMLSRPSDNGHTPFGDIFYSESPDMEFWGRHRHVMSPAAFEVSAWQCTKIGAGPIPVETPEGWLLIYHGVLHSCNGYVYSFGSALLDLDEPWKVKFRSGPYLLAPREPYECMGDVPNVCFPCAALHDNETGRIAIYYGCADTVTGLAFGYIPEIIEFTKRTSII

Molecule: CC(=O)N[C@H]1C(O)O[C@H](CO)[C@@H](O)[C@@H]1O (some centres unmarked) [N-acetylglucosamine]
X-ray crystal structure, co-crystallization [1]: complex with N-acetylglucosamine alone (PDB entry 4udg

Molecule: O=P(O)(O)O [inorganic phosphate]
X-ray crystal structure [2]: Pi is deeply buried in the catalytic site, strongly stabilized by hydrogen bonds

stoichiometry N [3]: 6.16
stoichiometry N [4]: 6
stoichiometry N [5]: 6
Molecule: Uhgb_MP, β-1,4-mannopyranosyl-chitobiose phosphorylase (GH130_2 mannoside phosphorylase) (enzyme)

Source: article PMC4461205, “Structural bases for N-glycan processing by mannoside phosphorylase” (Acta Crystallographica Section D: Biological Crystallography, 2015)
